This data set deals with T1, Lon (wildtype) (UniProt P0CAW0 1-799).
T1 sequence: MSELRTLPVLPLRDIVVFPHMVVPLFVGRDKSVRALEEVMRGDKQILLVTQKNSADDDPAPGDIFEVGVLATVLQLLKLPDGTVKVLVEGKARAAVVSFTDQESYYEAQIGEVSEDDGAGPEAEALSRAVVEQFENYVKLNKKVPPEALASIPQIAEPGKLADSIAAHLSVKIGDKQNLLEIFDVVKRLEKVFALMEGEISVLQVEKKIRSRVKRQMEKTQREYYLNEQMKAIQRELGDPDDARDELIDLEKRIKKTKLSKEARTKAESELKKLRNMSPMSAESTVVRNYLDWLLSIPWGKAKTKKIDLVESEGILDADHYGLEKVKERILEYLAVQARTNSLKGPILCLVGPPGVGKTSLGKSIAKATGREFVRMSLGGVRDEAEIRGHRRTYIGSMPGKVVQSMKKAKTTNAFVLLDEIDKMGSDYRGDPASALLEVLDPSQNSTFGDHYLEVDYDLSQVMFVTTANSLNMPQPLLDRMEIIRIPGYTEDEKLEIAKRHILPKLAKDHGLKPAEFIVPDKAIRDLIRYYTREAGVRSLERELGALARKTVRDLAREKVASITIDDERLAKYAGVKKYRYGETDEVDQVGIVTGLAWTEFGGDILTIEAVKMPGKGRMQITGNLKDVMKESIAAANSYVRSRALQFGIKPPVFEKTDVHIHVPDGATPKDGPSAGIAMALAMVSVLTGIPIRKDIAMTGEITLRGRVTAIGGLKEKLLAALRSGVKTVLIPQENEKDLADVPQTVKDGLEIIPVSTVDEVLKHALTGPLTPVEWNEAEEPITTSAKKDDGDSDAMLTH
The data set is described as follows: fluorescence polarization.

Regarding AACGGATGATCCACAGGAGAGTCTGGCGCAGGGCGAGAG (ssDNA) [FAM-DNA oligo], the Kd (commonly the constant that tells how readily two partners part at equilibrium) stood at 286 nM.

(Values after paper doi:10.1101/317677.)
